The target in the assay is filamentous actin (F-actin) from rabbit skeletal muscle (rabbit, UniProt P68135 1-377). The assay is described as follows: co-sedimentation.

B1: MBPVinc8 (maltose binding protein fused to vinculin tail residues 809-1063) (domain or fragment)
chain: SDPGLQKSFLDSGYRILGAVAKVREAFQPQEPDFPPPPPDLEHLHLTDELAPPKPPLPEGEVPPPRPPPPEEKDEEFPEQKAGEAINQPMMMAARQLHDEARKWSSKGNDIIAAAKRMALLMAEMSRLVRGGSGNKRALIQCAKDIAKASDEVTRLAKEVAKQCTDKRIRTNLLQVCERIPTISTQLKILSTVKATMLGRTNISDEESEQATEMLVHNAQNLMQSVKETVREAEAASIKIRTDAGFTLRWVRKTP
As for B1, the “stoichiometry N” value is 1.18 mol MBPVinc8 per mol actin.

B2: gizzard vinculin (intact, 116 kD) (natural protein)
chain: MPVFHTRTIESILEPVAQQISHLVIMHEEGEVDGKAIPDLTAPVSAVQAAVSNLVRVGKETVQTTEDQILKRDMPPAFIKVENACTKLVRAAQMLQADPYSVPARDYLIDGSRGILSGTSDLLLTFDEAEVRKIIRVCKGILEYLTVAEVVETMEDLVTYTKNLGPGMTKMAKMIDERQQELTHQEHRVMLVNSMNTVKELLPVLISAMKIFVTTKNTKSQGIEEALKNRNFTVEKMSAEINEIIRVLQLTSWDEDAWASKDTEAMKRALALIDSKMNQAKGWLRDPNAPPGDAGEQAIRQILDEAGKAGELCAGKERREILGTCKTLGQMTDQLADLRARGQGATPMAMQKAQQVSQGLDLLTAKVENAARKLEAMTNSKQAIAKKIDAAQNWLADPNGGSEGEEHIRGIMSEARKVAELCEEPKERDDILRSLGEISALTAKLSDLRRHGKGDSPEARALAKQIATSLQNLQSKTNRAVANTRPVKAAVHLEGKIEQAQRWIDNPTVDDRGVGQAAIRGLVAEGRRLANVMMGPYRQDLLAKCDRVDQLAAQLADLAARGEGESPQARAIAAQLQDSLKDLKARMQEAMTQEVSDVFSDTTTPIKLLAVAATAPSDTPNREEVFEERAANFENHAARLGATAEKAAAVGTANKTTVEGIQATVKSARELTPQVVSAARILLRNPGNQAAYEHFETMKNQWIDNVEKMTGLVDEAIDTKSLLDASEEAIKKDLDKCKVAMANMQPQMLVAGATSIARRANRILLVAKREVENSEDPKFREAVKAASDELSKTISPMVMDAKAVAGNISDPGLQKSFLDSGYRILGAVAKVREAFQPQEPDFPPPPPDLEHLHLTDELAPPKPPLPEGEVPPPRPPPPEEKDEEFPEQKAGEAINQPMMMAARQLHDEARKWSSKGNDIIAAAKRMALLMAEMSRLVRGGSGNKRALIQCAKDIAKASDEVTRLAKEVAKQCTDKRIRTNLLQVCERIPTISTQLKILSTVKATMLGRTNISDEESEQATEMLVHNAQNLMQSVKETVREAEAASIKIRTDAGFTLRWVRKTPWYQ
As to B2, the “stoichiometry N” value was 0.5 mol vinculin per mol actin.

The values are drawn from paper PMC2120156 (The Journal of Cell Biology, 1994).
